The source of these data is patent publication US20080286311A1.

Assay [1] concerns the target basophils from house dust mite allergic patients.
For assay [2], the target named is serum IgE of profilin-sensitised (Phl p 12-allergic) patients. As to the kind of experiment: fluid phase inhibition: sera of six patients preincubated with 10 µg Phl p 12, then ELISA on plate-bound Phl p 12.
Assay [3] concerns the target basophils (granulocytes) from Phl p 12-allergic patients.
The target in assay [4] is serum IgE of profilin-sensitised (Phl p 12-allergic) patients. Nature of the assay: fluid phase inhibition: sera of six patients preincubated with 10 µg MP12, then ELISA on plate-bound Phl p 12.

Molecule “rDer p 2 hybrid (aa 54-129+1-53) (from UniProt P49278)” returned a CD 203c expression on basophils in assay [1] of 10 fold reduced.

B1: Phl p 12 wild-type (timothy grass pollen profilin) (protein)
chain: MSWQTYVDEHLMCEIEGHHLASAAILGHDGTVWAQSADFPQFKPEEITGIMKDFDEPGHLAPTGMFVAGAKYMVIQGEPGAVIRGKKGAGGITIKKTGQALVVGIYDEPMTPGQCNMVVERLGDYLVEQGM
Regarding B1, the mean % inhibition of IgE binding to Phl p 12 in assay [2] amounted to 86%.

B2: MP12 (reshuffled Phl p 12 derivative) (protein)
chain: MEPGAVIRGKKGAGGITIKKTGQALVGIYDEPMTPGQCNMVVERLGDYLVEQGMMSWQTYVDEHLMCEIEGHHLASAAILGHDGTVWAQSADFPQFKPEEITGIMKDFDEPGHLAPTGMFVAGAKYMVIQGHHHHHH
For B2, in assay [3], the histamine release (fold reduction) is 1000. The mean % inhibition of IgE binding to Phl p 12 in assay [4] is 31.2%.
